Reference: patent publication US20230381350A1 (PRECIRIX N V, published 2023)
Blank lines part the entries; values can stand above or below the binder they belong to.

Tests used:
[1] = target: T1, murine FAP recombinant protein (murine, UniProt P97321 26-761); assay: bio-layer interferometry (Octet RED96), biotinylated murine FAP on streptavidin sensor
T1 construct: The protein was biotinylated for bio-layer interferometry; also called extracellular domain of murine FAP with N-terminal His6-tag
T1 sequence: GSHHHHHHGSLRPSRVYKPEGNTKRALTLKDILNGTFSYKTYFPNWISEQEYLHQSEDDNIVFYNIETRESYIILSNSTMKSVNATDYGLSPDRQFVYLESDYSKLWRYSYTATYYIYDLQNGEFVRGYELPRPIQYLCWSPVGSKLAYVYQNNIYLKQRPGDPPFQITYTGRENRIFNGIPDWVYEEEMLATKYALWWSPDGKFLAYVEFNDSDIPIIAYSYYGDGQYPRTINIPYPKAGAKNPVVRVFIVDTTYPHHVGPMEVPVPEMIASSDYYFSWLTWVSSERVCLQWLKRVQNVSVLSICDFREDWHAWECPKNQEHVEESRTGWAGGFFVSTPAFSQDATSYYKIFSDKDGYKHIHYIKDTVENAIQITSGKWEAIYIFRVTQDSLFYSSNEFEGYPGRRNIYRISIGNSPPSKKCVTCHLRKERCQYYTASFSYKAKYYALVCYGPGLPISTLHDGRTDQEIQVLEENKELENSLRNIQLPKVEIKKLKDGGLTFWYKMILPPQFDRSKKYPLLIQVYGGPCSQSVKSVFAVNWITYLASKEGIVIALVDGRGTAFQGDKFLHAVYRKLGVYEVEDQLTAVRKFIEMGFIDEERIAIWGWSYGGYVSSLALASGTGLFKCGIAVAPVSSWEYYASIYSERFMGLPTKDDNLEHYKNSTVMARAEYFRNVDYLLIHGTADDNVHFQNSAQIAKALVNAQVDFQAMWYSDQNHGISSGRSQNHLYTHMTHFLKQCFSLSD
Protocol: (§1) The kinetic parameters of antigen binding by purified VHHs were determined via bio-layer interferometry with an Octet RED96 instrument (ForteBio). The assay was performed at 25° C. with shaking at 1000 rpm. Streptavidin coated SA sensors were equilibrated in assay buffer (HBS supplemented with 0.5% BSA, 0.1% Tween), before loading for 5 min with the biotinylated FAP recombinant protein at a concentration of 5 μg/ml. His₆-tagged VHHs were analyzed in a threefold serial dilution from 30 nM to 0.4 nM in assay buffer (except for VHH B3 binding murine FAP recombinant protein, for which a fivefold serial dilution from 1000 nM to 1.6 nM was employed). First the baseline was measured for 180 s in assay buffer, followed by 5 subsequent association phases of 180 s with the VHH preparations in increasing order of concentration, with 75 s intermediate dissociation phases in assay buffer in between, and a final dissociation phase in assay buffer of 30 min. In every assay a reference sensor loaded with FAP recombinant protein was included that was incubated in assay buffer during the association phases.
Binding curves were exported and analyzed using the BIAevaluation analysis software (GE Healthcare). First the y-axes of the different curves were aligned to the median of the last 5 s of the baseline measurement. […]

[2] = target: T2, human FAP recombinant protein (human, UniProt Q12884 26-760); assay: bio-layer interferometry (Octet RED96), biotinylated human FAP on streptavidin sensor, kinetic titration, 25 °C
T2 construct: The protein was biotinylated with sulfo-NHS-SS-biotin for bio-layer interferometry; also called extracellular domain of human FAP with N-terminal His6-tag
T2 sequence: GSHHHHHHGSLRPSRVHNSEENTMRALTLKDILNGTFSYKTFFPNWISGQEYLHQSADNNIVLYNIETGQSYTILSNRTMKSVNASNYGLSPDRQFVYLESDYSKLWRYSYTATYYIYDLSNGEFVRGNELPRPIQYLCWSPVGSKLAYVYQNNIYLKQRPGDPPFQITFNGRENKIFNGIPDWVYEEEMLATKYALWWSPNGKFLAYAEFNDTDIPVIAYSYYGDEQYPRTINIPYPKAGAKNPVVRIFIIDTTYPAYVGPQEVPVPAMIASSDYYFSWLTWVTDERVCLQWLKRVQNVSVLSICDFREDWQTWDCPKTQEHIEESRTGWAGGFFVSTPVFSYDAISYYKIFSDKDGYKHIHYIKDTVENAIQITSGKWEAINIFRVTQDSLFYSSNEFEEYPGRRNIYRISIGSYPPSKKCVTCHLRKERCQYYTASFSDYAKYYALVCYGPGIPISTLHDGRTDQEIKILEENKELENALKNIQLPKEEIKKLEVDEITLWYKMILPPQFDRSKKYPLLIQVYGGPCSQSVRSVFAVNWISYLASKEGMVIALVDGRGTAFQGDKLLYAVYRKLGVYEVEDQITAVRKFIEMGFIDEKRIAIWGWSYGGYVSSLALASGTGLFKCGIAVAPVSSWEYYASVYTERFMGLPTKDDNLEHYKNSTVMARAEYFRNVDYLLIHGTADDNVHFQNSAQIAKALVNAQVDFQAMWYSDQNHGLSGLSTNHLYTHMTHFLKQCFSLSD
Protocol: as §1
Binding curves were exported and analyzed using the BIAevaluation analysis software (GE Healthcare). First the y-axes of the different curves were aligned to the median of the last 5 s of the baseline measurement. Subsequently, the sensorgram of the reference sensor was subtracted from all other sensorgrams. The resulting binding curve was fitted using a general fit with the ‘kinetic titration with drift’ binding model (1:1 (antigen:analyte) model; Karlsson, R. et al (2006), Analyzing a kinetic titration series using affinity biosensors. Analytical Biochemistry 349: 136-147), with Rmax fitted global, RI local and drift set to 0.
Table 7 gives an overview of the kinetic parameters of antigen binding for His₆-tagged VHHs B1, B2, B3 and B4 (SEQ ID NO: 21-24), as determined by bio-layer interferometry with biotinylated human or murine FAP recombinant protein that was loaded on the sensor.

[3] = target: T3, human FAP expressed on cells (human, UniProt Q12884 1-760); assay: saturation binding of 111In-DOTA-labelled untagged VHH B1 on human FAP-expressing GM05389 cells
T3 construct: also called human FAP cell surface protein; human FAP receptor
T3 sequence: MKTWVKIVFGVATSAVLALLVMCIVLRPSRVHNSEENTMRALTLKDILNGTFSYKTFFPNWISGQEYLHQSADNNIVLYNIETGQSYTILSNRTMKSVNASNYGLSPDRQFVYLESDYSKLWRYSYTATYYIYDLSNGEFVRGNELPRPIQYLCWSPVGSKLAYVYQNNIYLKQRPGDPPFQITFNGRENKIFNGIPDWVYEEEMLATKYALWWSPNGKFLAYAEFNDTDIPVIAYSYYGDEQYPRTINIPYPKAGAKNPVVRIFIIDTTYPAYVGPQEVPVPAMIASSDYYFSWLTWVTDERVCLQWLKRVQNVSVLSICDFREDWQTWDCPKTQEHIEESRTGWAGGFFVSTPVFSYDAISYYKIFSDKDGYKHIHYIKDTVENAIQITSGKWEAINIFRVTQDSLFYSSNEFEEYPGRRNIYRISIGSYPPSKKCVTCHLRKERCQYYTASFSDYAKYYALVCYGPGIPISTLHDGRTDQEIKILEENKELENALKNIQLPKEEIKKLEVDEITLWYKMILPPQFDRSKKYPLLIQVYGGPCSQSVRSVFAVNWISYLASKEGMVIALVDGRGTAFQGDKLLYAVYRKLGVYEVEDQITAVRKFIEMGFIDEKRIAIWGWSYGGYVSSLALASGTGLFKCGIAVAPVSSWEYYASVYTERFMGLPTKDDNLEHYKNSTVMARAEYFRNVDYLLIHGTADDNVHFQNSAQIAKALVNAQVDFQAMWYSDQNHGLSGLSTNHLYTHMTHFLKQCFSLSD
Protocol: Secondly, untagged human/murine FAP-crossreactive VHH B1 was radiolabeled with ¹¹¹In, after which its in vitro and in vivo diagnostic potential was evaluated. The binding potential of the resulting radio-conjugate was assessed to confirm that this was not affected by the conjugation of ¹¹¹In-DOTA to the amino acid sequence of the VHH. To this, human FAP-expressing GM05389 cells were incubated with serial dilutions with concentrations ranging from 0 to 33 nM of the ¹¹¹In-labelled VHHs. A 100-fold excess of the corresponding unlabeled VHH was added in parallel to saturate the human FAP receptors expressed on cancer cells, to assess non-specific binding.

[4] = target: T3, human FAP expressed on cells; assay: saturation binding of 225Ac-DOTA-labelled untagged VHH B1 on human FAP-expressing GM05389 cells
[5] = target: T3, human FAP expressed on cells; assay: saturation binding of 177Lu-DTPA-labelled untagged VHH B1 on human FAP-expressing GM05389 cells
Protocol: (§2) In a first part, its in vitro behaviour was assessed by means of investigating its cellular binding and retention overtime. The binding potential of the resulting radioconjugates was assessed to confirm that this was not affected by the introduction of ¹⁷⁷Lu-DTPA into the amino acid sequence of the VHH. To this, human FAP-expressing GM05389 and HEK-293 cells were incubated with serial dilutions with concentrations ranging from 0 to 33 nM of ¹⁷⁷Lu-labeled untagged VHH B1. A 100-fold excess of the corresponding unlabeled VHH was added in parallel to saturate the human FAP receptors expressed on cancer cells, to assess non-specific binding.

[6] = target: T3, human FAP expressed on cells; assay: saturation binding of 177Lu-DTPA-labelled untagged VHH B1 on human FAP-expressing HEK-293 cells
Protocol: as §2

[7] = target: T1, murine FAP recombinant protein; assay: ELISA, coated murine FAP recombinant protein, HA-His6-tagged VHH extract, anti-HA detection
Protocol: (§3) The day before measurement, 0.1 μg recombinant protein at a concentration of 1 μg/mL in 100 mM NaHCO₃, pH 8.2 was coated in a 96-well ELISA plate (Nunc MaxiSorp). Per VHH clone also a blank coated well was foreseen (only buffer). The wells were overcoated with protein-free T20 (PBS) blocking buffer (Pierce). After washing with PBS, pH7.4, 0.05% Tween, VHH-containing bacterial freeze-thaw extract was added to every well. Binding of HA-His₆-tagged VHHs was detected by using mouse anti-HA.11 epitope tag (clone 16B12, Biolegend) as the primary Ab and goat anti-mouse IgG (whole molecule) alkaline phosphatase conjugate (Sigma-Aldrich) as the secondary Ab, with thorough washing with PBS, pH 7.4, 0.05% Tween in between. Signals were developed using phosphatase substrate (Sigma-Aldrich) in AP blot buffer (100 mM NaCl, 50 mM MgCl₂, 100 mM Tris, pH 9.5). The absorbance was determined at 405 nm using an absorbance microplate reader (Molecular Devices). Per clone the ratio was determined between the absorbance in the antigen-coated well versus the well without antigen.

[8] = target: T2, human FAP recombinant protein; assay: ELISA on coated recombinant protein, VHH-containing bacterial extract, anti-HA detection, signal-to-background ratio
Protocol: as §3

[9] = target: T3, human FAP expressed on cells; assay: flow cytometry on human FAP-expressing GM05389 cells, VHH-containing bacterial extract, anti-HA and PE-conjugated secondary detection, Δmfi against cells without VHH
Protocol: The cell binding was tested by flow cytometry experiments. Per test condition 1×10⁵ to 2×10⁵ cells, washed in PBS, 0.5% BSA, were pelleted in the well of a 96-well U-bottom plate. The cell pellets were resuspended and incubated with the VHH-containing bacterial freeze-thaw extracts (diluted in PBS, 0.5% BSA). Binding of HA-His₆-tagged VHHs was detected by using mouse anti-HA.11 epitope tag (clone 16B12, Biolegend) as the primary detection antibody and PE-conjugated rat anti-mouse IgG1 (clone A85-1, BD Pharmingen) as the secondary detection antibody, with washing with PBS, 0.5% BSA in between, and finally resuspended in PBS, 0.5% BSA.
Flow cytometry was performed on a FACS Canto II (BD Biosciences). Data were analyzed using FlowJo software. Based on the forward scatter-side scatter plot a single cell gate was drawn. The median fluorescence intensity was determined on a histogram for the phycoerythrin signal of the single cells. The difference in median fluorescence intensity (A mfi) was calculated relative to a test condition without incubation of VHHs (cells+primary Ab+secondary Ab), and are shown in FIG. 3.

B1: His6-tagged VHH B3 (VHH)
VHH: DVQLVESGGGLVQAGGSLRLSCAVSGRLFSTNAMGWYRQAPGKQRELVAGITGGDRSNYADSVKGRFTISRDNGKNTLYLQMNSLKPEDTAVYYCNFYPPIVGDYWGQGTQVTVSS
notes: Purified, unlabelled; used in bio-layer interferometry; also called B3 with His6-tag
binding result [1]: no binding
Kd [2]: 0.16 nM
koff [2]: 5.4e-05 s⁻¹
kon [2]: 340000 M⁻¹ s⁻¹

B3: 225Ac-labeled untagged VHH B1 (VHH)
VHH: DVQLVESGGGLVQPGGSLRLSCVASGRLSSSNSMAWYRQVPGKRRELVAGITGGGETNYADFVGGRFTISRDNAKNGLYLQLNGLKPEDTAAYYCNFWPPLINYWGQGTQVTVSS
modifications: 225Ac-DOTA (p-SCN-Bn-DOTA) conjugated to lysine side-chain amines
notes: also called 225Ac-DOTA-VHH
EC50 [4]: 0.4 nM

B4: 177Lu-labeled untagged VHH B1 (VHH)
VHH: DVQLVESGGGLVQPGGSLRLSCVASGRLSSSNSMAWYRQVPGKRRELVAGITGGGETNYADFVGGRFTISRDNAKNGLYLQLNGLKPEDTAAYYCNFWPPLINYWGQGTQVTVSS
modifications: 177Lu-DTPA (p-SCN-Bn-CHX-A''-DTPA) conjugated to lysine side-chain amines
notes: also called 177Lu-B1; 177Lu-DTPA-VHH
EC50 [5]: 0.5 nM
EC50 [6]: 0.8 nM

Now from value to binder:

EC50 [3]: 0.6 nM
B2: 111In-labeled untagged VHH B1 (VHH)
VHH: DVQLVESGGGLVQPGGSLRLSCVASGRLSSSNSMAWYRQVPGKRRELVAGITGGGETNYADFVGGRFTISRDNAKNGLYLQLNGLKPEDTAAYYCNFWPPLINYWGQGTQVTVSS
modifications: 111In-DOTA (p-SCN-Bn-DOTA) conjugated to lysine side-chain amines

signal-to-background ratio [7]: > 30
binding result [8]: no binding
binding result [9]: no binding
B5: HA-His6-tagged VHH B4 (VHH)
VHH: QVQLQESGGGLVQVGGSLRLSCVASGFTFSSYYMSWVRQAPGKGLEWVASIYADGDMTYYADSVRGRFTISRDNAKNTLYLQMNSLKSEDTAVYYCAKDPLPPYHVNQGTQVTVSS
notes: also called B4 with HA-His6-tag
